Three molecules from publication PMC10397247 can be followed below.

The target in one assay is T1, P5A-bH.
T1 chain: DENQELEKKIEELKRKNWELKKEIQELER
Kind of assay: two-hybrid library CCNG1.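 Also: natural log of median RNA to DNA barcode read ratio; higher means stronger binding.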

A further assay addresses T2, P6A-bH.
T2 chain: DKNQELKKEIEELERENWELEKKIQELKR
The assay can be described thus: two-hybrid library CCNG1.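 Also: natural log of median RNA to DNA barcode read ratio; higher means stronger binding.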

The next assay addresses T3, P8A-bH.
T3 chain: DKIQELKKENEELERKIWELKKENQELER
The assay can be described thus: two-hybrid library CCNG1.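 Also: natural log of median RNA to DNA barcode read ratio; higher means stronger binding.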

The target of the next assay is T4, P7A-bH.
T4 chain: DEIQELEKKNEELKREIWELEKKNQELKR
Kind of assay: two-hybrid library CCNG1.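 Also: natural log of median RNA to DNA barcode read ratio; higher means stronger binding.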

A further assay addresses T5, P9A-bH.
T5 chain: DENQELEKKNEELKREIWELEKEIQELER
Kind of assay: two-hybrid library CCNG1.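 Also: natural log of median RNA to DNA barcode read ratio; higher means stronger binding.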

The next assay deals with T6, 4H3175-bN.
T6 chain: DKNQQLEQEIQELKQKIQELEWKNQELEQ
Kind of assay: two-hybrid library CCNG1.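 Also: natural log of median RNA to DNA barcode read ratio; higher means stronger binding.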

In the next assay the target is T7, 4H3497-bN.
T7 chain: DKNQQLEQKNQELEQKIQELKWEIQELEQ
The assay can be described thus: two-hybrid library CCNG1.

In another assay the target is T8, 4H3858-bN.
T8 chain: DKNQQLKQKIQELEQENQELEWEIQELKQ
Kind of assay: two-hybrid library CCNG1.

The target of another assay is T9, 4H3277-bN.
T9 chain: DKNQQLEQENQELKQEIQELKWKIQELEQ
The assay can be described thus: two-hybrid library CCNG1.

In another assay the target is T10, 4H3414-bN.
T10 chain: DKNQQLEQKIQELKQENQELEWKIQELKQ
The assay can be described thus: two-hybrid library CCNG1.

A further assay has as its target T11, 4H3129-bN.
T11 chain: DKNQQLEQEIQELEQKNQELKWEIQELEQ
The assay can be described thus: two-hybrid library CCNG1.

Another assay has as its target T12, 4H570-bN.
T12 chain: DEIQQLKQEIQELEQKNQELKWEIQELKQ
Kind of assay: two-hybrid library CCNG1.

The target in a further assay is T13, 4H3172-bN.
T13 chain: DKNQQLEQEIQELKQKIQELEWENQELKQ
The assay can be described thus: two-hybrid library CCNG1.

A further assay has as its target T14, 4H3817-bN.
T14 chain: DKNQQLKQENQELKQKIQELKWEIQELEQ
The assay can be described thus: two-hybrid library CCNG1.

A further assay concerns the target T15, 4H3298-bN.
T15 chain: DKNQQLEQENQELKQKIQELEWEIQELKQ
The assay can be described thus: two-hybrid library CCNG1.

The next assay concerns the target T16, 4H3462-bN.
T16 chain: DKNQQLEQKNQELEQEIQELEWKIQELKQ
Kind of assay: two-hybrid library CCNG1.

The next assay addresses T17, 4H3613-bN.
T17 chain: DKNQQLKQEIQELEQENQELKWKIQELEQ
Kind of assay: two-hybrid library CCNG1.

The target of the next assay is T18, 4H619-bN.
T18 chain: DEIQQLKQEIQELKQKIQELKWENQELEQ
The assay can be described thus: two-hybrid library CCNG1.

Another assay deals with T19, 4H591-bN.
T19 chain: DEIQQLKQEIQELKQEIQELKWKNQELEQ
The assay can be described thus: two-hybrid library CCNG1.

The target in the next assay is T20, 4H3638-bN.
T20 chain: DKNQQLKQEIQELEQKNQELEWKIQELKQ
The assay can be described thus: two-hybrid library CCNG1.

In another assay the target is T21, 4H626-bN.
T21 chain: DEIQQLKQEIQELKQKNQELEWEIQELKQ
Kind of assay: two-hybrid library CCNG1.

The target in a further assay is T22, 4H3162-bN.
T22 chain: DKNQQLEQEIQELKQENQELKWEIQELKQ
Kind of assay: two-hybrid library CCNG1.

The next assay deals with T23, 4H850-bN.
T23 chain: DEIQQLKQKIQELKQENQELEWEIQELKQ
Kind of assay: two-hybrid library CCNG1.

For a further assay, the target named is T24, 4H1985-bN.
T24 chain: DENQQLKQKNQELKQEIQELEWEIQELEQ
The assay can be described thus: two-hybrid library CCNG1.

A further assay deals with T25, 4H3628-bN.
T25 chain: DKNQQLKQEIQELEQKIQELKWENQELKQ
The assay can be described thus: two-hybrid library CCNG1.

The target of another assay is T26, 4H584-bN.
T26 chain: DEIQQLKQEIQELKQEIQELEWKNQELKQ
The assay can be described thus: two-hybrid library CCNG1.

The target of another assay is T27, 4H3974-bN.
T27 chain: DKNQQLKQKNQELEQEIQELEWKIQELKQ
The assay can be described thus: two-hybrid library CCNG1.

The target of the next assay is T28, 4H3926-bN.
T28 chain: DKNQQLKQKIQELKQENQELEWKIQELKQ
The assay can be described thus: two-hybrid library CCNG1.

For the next assay, the target named is T29, 4H3631-bN.
T29 chain: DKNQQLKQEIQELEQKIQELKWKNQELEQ
The assay can be described thus: two-hybrid library CCNG1.

Another assay concerns the target T30, 4H906-bN.
T30 chain: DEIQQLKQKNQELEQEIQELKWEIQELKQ
Kind of assay: two-hybrid library CCNG1.

For another assay, the target named is T31, 4H3939-AA.
T31 chain: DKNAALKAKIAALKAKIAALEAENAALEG
The assay can be described thus: two-hybrid library CCmax. As to conditions: mean of both orientations.

The target of the next assay is T32, 4H2774-AA.
T32 chain: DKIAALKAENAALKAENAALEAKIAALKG
Kind of assay: two-hybrid library CCmax. Particulars: mean of both orientations.

Another assay concerns the target T33, 4H3049-AA.
T33 chain: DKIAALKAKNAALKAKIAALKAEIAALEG
Kind of assay: two-hybrid library CCmax. As to conditions: mean of both orientations.

A further assay has as its target T34, 4H3782-AA.
T34 chain: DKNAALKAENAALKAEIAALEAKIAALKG
Kind of assay: two-hybrid library CCmax. As to conditions: mean of both orientations.

Another assay addresses T35, 4H464-AA.
T35 chain: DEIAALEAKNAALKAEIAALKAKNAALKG
The assay can be described thus: two-hybrid library CCmax. As to conditions: mean of both orientations.

The next assay addresses T36, 4H3414-AA.
T36 chain: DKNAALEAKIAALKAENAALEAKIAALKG
Kind of assay: two-hybrid library CCmax. As to conditions: mean of both orientations.

The next assay has as its target T37, 4H249-AA.
T37 chain: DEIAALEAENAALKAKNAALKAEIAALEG
The assay can be described thus: two-hybrid library CCmax. As to conditions: mean of both orientations.

The next assay addresses T38, 4H3129-AA.
T38 chain: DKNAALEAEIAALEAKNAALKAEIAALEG
The assay can be described thus: two-hybrid library CCmax.

The next assay concerns the target T39, 4H380-AA.
T39 chain: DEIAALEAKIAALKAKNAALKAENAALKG
The assay can be described thus: two-hybrid library CCmax. Particulars: mean of both orientations.

The target of the next assay is T40, 4H2580-AA.
T40 chain: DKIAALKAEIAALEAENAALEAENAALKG
The assay can be described thus: two-hybrid library CCmax. Particulars: mean of both orientations.

The target of a further assay is T41, 4H63-AA.
T41 chain: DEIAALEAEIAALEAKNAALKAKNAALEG
Kind of assay: two-hybrid library CCmax.

In a further assay the target is T42, 4H483-AA.
T42 chain: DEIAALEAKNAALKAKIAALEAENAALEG
The assay can be described thus: two-hybrid library CCmax. As to conditions: mean of both orientations.

The target in another assay is T43, 4H2699-AA.
T43 chain: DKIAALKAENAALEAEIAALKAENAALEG
Kind of assay: two-hybrid library CCmax. As to conditions: mean of both orientations.

The target in another assay is T44, 4H341-AA.
T44 chain: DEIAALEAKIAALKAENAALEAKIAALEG
The assay can be described thus: two-hybrid library CCmax. Particulars: mean of both orientations.

The target in the next assay is T45, 4H2903-AA.
T45 chain: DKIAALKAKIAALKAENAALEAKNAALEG
Kind of assay: two-hybrid library CCmax. Particulars: mean of both orientations.

Another assay has as its target T46, 4H446-AA.
T46 chain: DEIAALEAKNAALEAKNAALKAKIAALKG
Kind of assay: two-hybrid library CCmax. Particulars: mean of both orientations.

The target of a further assay is T47, 4H1913-AA.
T47 chain: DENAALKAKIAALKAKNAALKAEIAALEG
The assay can be described thus: two-hybrid library CCmax.

A further assay has as its target T48, 4H2728-AA.
T48 chain: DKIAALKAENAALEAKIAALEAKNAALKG
Kind of assay: two-hybrid library CCmax. Particulars: mean of both orientations.

The next assay addresses T49, 4H3629-AA.
T49 chain: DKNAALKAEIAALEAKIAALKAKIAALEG
Kind of assay: two-hybrid library CCmax. Particulars: mean of both orientations.

The target of another assay is T50, 4H2961-AA.
T50 chain: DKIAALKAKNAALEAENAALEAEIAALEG
Kind of assay: two-hybrid library CCmax. Particulars: mean of both orientations.

The target in the next assay is T51, 4H3969-AA.
T51 chain: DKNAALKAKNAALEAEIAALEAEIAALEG
The assay can be described thus: two-hybrid library CCmax. Particulars: mean of both orientations.

In another assay the target is T52, 4H2621-AA.
T52 chain: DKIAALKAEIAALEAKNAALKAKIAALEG
The assay can be described thus: two-hybrid library CCmax. Particulars: mean of both orientations.

The next assay concerns the target T53, 4H3595-AA.
T53 chain: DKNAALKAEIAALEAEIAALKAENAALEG
Kind of assay: two-hybrid library CCmax. Particulars: mean of both orientations.

B1: P5A-bH (peptide)
chain: DENQELEKKIEELKRKNWELKKEIQELER
As for B1, the interaction score with P5A-bH was -1.13; with P6A-bH it was 1.49; with P8A-bH it was 1.32; with P7A-bH, -0.756; with P9A-bH, -0.708.

B2: 4H1985-bN (peptide)
chain: DENQQLKQKNQELKQEIQELEWEIQELEQ
Consider B2, for which the interaction score with 4H3175-bN is -2.05; with 4H3497-bN, -1.28; with 4H3858-bN, -0.987; with 4H3277-bN it was -1.75; with 4H3414-bN it was -1.17; in the assay with 4H3129-bN it was -2.06. For the same molecule, the interaction score was -1.42 in the assay with 4H570-bN; -0.909 with 4H3172-bN; -0.872 with 4H3817-bN; -0.626 with 4H3298-bN; -1.4 with 4H3462-bN; -1.86 with 4H3613-bN. The interaction score with 4H619-bN is -1.93; with 4H591-bN, -0.871; with 4H3638-bN it was -1.17; with 4H626-bN, -0.889; in the assay with 4H3162-bN, -1.41; with 4H850-bN it was -1.6. For the same molecule, the interaction score was -2.05 in the assay with 4H1985-bN; -1.17 in the assay with 4H3628-bN; -1.72 with 4H584-bN; -1.17 with 4H3974-bN; -1.25 in the assay with 4H3926-bN; -1.53 in the assay with 4H3631-bN. The same molecule showed an interaction score in the assay with 4H906-bN of -1.03.

B3: 4H1913-AA (peptide)
chain: DENAALKAKIAALKAKNAALKAEIAALEG
In the case of B3, the interaction score with 4H3939-AA is -1.9; with 4H2774-AA it was -0.0687; with 4H3049-AA, -1.85; with 4H3782-AA, -1.16; with 4H464-AA, -0.535; with 4H3414-AA it was 1.8. The interaction score with 4H249-AA was -1.83; in the assay with 4H3129-AA, -0.895; with 4H380-AA, -2.69; in the assay with 4H2580-AA it was 0.453; with 4H63-AA, -0.87; with 4H483-AA, -1.02. In addition, the interaction score with 4H2699-AA is -0.293; in the assay with 4H341-AA it was 0.862; in the assay with 4H2903-AA, -1.62; in the assay with 4H446-AA, -1.42; with 4H1913-AA, -1.12; with 4H2728-AA, 0.365. Further, the interaction score with 4H3629-AA is -1.21; in the assay with 4H2961-AA, -1.61; in the assay with 4H3969-AA it was -0.832; with 4H2621-AA, -0.536; with 4H3595-AA it was -1.29.
